Data reported in article PMC5678113, “Substrate Specificity and Allosteric Regulation of a D-Lactate Dehydrogenase from a Unicellular Cyanobacterium are Altered by an Amino Acid Substitution” (Scientific Reports, 2017).
Changes are numbered by the printed parent chain. Names and notes keep the numbering of the source. Each block holds one molecule with its values, some of them ahead of it.

Key:
Test in all cases: NADH oxidation followed at A340
SyDdh (GST-SyDdh) [1] = molecular target: T1, SyDdh (GST-SyDdh) (Synechocystis sp. PCC 6803, UniProt P74586); format: biochemical; settings: for remaining activity at 2500 µM: read-out: % residual activity at 2.5 mM
T1 construct: gene ddh; Full ddh ORF, GST-tagged (tag kept, pGEX5X-1), expressed in E. coli DH5alpha, glutathione-Sepharose purified
T1 sequence (P74586 1-333): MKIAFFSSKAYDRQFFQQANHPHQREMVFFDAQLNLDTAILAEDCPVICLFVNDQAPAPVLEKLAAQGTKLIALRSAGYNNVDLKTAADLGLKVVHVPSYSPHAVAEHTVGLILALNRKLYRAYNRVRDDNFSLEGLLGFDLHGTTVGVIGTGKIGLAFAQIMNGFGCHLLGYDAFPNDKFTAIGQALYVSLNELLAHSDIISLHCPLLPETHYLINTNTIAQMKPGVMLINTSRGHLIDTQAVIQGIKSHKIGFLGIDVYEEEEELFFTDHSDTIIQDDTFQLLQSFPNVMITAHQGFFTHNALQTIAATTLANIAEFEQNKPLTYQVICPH

SyDdh (GST-SyDdh) [2] = molecular target: T2, SyDdh (GST-SyDdh) (Synechocystis sp. PCC 6803, UniProt P74586, Q14E); format: biochemical; settings: pH 7.5, 30 °C, 0.1 mM NADH, no Mg2+; substrate inhibition
T2 construct: gene ddh; Full ddh ORF, GST-tagged (tag kept, pGEX5X-1), expressed in E. coli DH5alpha, glutathione-Sepharose purified
T2 sequence (P74586 entry or part of it Q14E): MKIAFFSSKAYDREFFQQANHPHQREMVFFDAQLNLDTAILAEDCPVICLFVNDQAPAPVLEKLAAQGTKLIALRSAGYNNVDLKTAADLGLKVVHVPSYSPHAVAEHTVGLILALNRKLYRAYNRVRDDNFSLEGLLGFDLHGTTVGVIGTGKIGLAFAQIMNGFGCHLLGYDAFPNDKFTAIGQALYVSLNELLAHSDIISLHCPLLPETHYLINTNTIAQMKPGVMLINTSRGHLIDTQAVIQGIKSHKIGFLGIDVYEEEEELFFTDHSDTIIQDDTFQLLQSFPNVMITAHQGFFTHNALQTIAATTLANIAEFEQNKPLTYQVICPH
Source text: (§1) NADH oxidation followed at A340 on SyDdh (GST-SyDdh)

SyDdh (GST-SyDdh) [3] = molecular target: T1, SyDdh (GST-SyDdh); format: biochemical; settings: pH 7.5, 30 °C, 0.1 mM NADH, no Mg2+; substrate inhibition
Source text: as §1

SyDdh (GST-SyDdh) [4] = molecular target: T3, SyDdh (GST-SyDdh) (Synechocystis sp. PCC 6803, UniProt P74586, S234G); format: biochemical; settings: pH 7.5, 30 °C, 0.1 mM NADH, no Mg2+; substrate inhibition
T3 construct: gene ddh; Full ddh ORF, GST-tagged (tag kept, pGEX5X-1), expressed in E. coli DH5alpha, glutathione-Sepharose purified
T3 sequence (P74586 entry or part of it S234G): as the sequence (P74586 entry or part of it Q14E) above, with E14Q, S234G counted along it
Source text: as §1

[5] = substrate: NC(=O)C1=CN([C@@H]2O[C@H](COP(=O)(O)OP(=O)(O)OC[C@H]3O[C@@H](n4cnc5c(N)ncnc54)[C@H](O)[C@@H]3O)[C@@H](O)[C@H]2O)C=CC1; format: biochemical, Synechocystis sp. PCC 6803; settings: pH 7.5, 30 °C, varied: cofactor
[6] = substrate: CC(=O)C(=O)O; format: biochemical, Synechocystis sp. PCC 6803; settings: pH 7.5, 30 °C, 0.1 mM NADH, no Mg2+, Hill coefficient 2.51
[7] = substrate: CC(=O)C(=O)O; format: biochemical, Synechocystis sp. PCC 6803; settings: pH 7.5, 30 °C, 0.1 mM NADH, no Mg2+
Source text: as §1

[8] = substrate: O=C(O)CC(=O)C(=O)O; format: biochemical, Synechocystis sp. PCC 6803; settings: pH 7.5, 30 °C, 0.1 mM NADH, no Mg2+
Source text: as §1

B1: SyDdh (GST-SyDdh) (Synechocystis sp. PCC 6803 substr. Kazusa) (protein)
chain: T1 sequence (P74586 1-333)
notes: Full ddh ORF, GST-tagged (tag kept, pGEX5X-1), expressed in E. coli DH5alpha, glutathione-Sepharose purified
K0.5 [5]: 0.028 ± 0.002 mM
kcat [5]: 2.60 ± 0.25 s⁻¹
K0.5 [6]: 0.38 ± 0.04 mM
kcat [6]: 2.71 ± 0.26 s⁻¹
kcat/Km [6]: 7140 ± 1150 M⁻¹ s⁻¹

B2: SyDdh (GST-SyDdh) (Synechocystis sp. PCC 6803 substr. Kazusa; S234G) (protein)
chain: T1 sequence (P74586 1-333) with S234G
notes: as for B1
K0.5 ([7]; Hill coefficient 1.64): 2.10 ± 0.18 mM
kcat ([7]; Hill coefficient 1.64): 1.71 ± 0.26 s⁻¹
kcat/Km ([7]; Hill coefficient 1.64): 820 ± 130 M⁻¹ s⁻¹
K0.5 ([8]; substrate-inhibition fit): 0.59 ± 0.05 mM
kcat ([8]; substrate-inhibition fit): 1.27 ± 0.24 s⁻¹
kcat/Km ([8]; substrate-inhibition fit): 2190 ± 520 M⁻¹ s⁻¹

B3: SyDdh (GST-SyDdh) (Synechocystis sp. PCC 6803 substr. Kazusa; Q14E) (protein)
chain: T1 sequence (P74586 1-333) with Q14E
notes: as for B1
K0.5 ([7]; substrate-inhibition fit): 0.52 ± 0.10 mM
kcat ([7]; substrate-inhibition fit): 4.11 ± 0.71 s⁻¹
kcat/Km ([7]; substrate-inhibition fit): 7980 ± 350 M⁻¹ s⁻¹
K0.5 ([8]; Hill coefficient 0.95): 1.71 ± 0.38 mM
kcat ([8]; Hill coefficient 0.95): 2.38 ± 0.1 s⁻¹
kcat/Km ([8]; Hill coefficient 0.95): 1460 ± 310 M⁻¹ s⁻¹

Results, then the molecule that gave them:

remaining activity at 2500 µM (SyDdh (GST-SyDdh) [1]): 42%
Molecule: NC(=O)C(=O)O [oxamate]

activity at 2500 µM (SyDdh (GST-SyDdh) [1]; read-out: % activity at 2.5 mM): 134%
Molecule: O=P(O)(O)OC[C@H]1OC(O)(COP(=O)(O)O)[C@@H](O)[C@@H]1O (some centres unmarked) [FBP]

remaining activity at 2500 µM (SyDdh (GST-SyDdh) [1]): 72%
Molecule: Nc1ncnc2c1ncn2[C@@H]1O[C@H](COP(=O)(O)OP(=O)(O)OP(=O)(O)O)[C@@H](O)[C@H]1O [ATP]

K i (SyDdh (GST-SyDdh) [2]): 16.51 ± 5.98 mM
Molecule: CC(=O)C(=O)O [pyruvate]

K i (SyDdh (GST-SyDdh) [3]): 8.56 ± 3.39 mM
K i (SyDdh (GST-SyDdh) [4]): 5.74 ± 1.04 mM
Molecule: O=C(O)CC(=O)C(=O)O [oxaloacetate]
